A word on the Kd: it is a measure of binding affinity in units of concentration. Lower therefore signals a tighter complex.

The source of these data is publication PMC10322149 (2023).

Where a chain is given by its changes, count along the chain named. Numbers in names are those of the source.

For the assay, the target named is Shank3 (UniProt Q4ACU6 1-1730). The assay is described as follows: ITC. A general note: ITC needs no label: the signal is the heat of the interaction.
Sequence of Shank3 (Q4ACU6 whole entry): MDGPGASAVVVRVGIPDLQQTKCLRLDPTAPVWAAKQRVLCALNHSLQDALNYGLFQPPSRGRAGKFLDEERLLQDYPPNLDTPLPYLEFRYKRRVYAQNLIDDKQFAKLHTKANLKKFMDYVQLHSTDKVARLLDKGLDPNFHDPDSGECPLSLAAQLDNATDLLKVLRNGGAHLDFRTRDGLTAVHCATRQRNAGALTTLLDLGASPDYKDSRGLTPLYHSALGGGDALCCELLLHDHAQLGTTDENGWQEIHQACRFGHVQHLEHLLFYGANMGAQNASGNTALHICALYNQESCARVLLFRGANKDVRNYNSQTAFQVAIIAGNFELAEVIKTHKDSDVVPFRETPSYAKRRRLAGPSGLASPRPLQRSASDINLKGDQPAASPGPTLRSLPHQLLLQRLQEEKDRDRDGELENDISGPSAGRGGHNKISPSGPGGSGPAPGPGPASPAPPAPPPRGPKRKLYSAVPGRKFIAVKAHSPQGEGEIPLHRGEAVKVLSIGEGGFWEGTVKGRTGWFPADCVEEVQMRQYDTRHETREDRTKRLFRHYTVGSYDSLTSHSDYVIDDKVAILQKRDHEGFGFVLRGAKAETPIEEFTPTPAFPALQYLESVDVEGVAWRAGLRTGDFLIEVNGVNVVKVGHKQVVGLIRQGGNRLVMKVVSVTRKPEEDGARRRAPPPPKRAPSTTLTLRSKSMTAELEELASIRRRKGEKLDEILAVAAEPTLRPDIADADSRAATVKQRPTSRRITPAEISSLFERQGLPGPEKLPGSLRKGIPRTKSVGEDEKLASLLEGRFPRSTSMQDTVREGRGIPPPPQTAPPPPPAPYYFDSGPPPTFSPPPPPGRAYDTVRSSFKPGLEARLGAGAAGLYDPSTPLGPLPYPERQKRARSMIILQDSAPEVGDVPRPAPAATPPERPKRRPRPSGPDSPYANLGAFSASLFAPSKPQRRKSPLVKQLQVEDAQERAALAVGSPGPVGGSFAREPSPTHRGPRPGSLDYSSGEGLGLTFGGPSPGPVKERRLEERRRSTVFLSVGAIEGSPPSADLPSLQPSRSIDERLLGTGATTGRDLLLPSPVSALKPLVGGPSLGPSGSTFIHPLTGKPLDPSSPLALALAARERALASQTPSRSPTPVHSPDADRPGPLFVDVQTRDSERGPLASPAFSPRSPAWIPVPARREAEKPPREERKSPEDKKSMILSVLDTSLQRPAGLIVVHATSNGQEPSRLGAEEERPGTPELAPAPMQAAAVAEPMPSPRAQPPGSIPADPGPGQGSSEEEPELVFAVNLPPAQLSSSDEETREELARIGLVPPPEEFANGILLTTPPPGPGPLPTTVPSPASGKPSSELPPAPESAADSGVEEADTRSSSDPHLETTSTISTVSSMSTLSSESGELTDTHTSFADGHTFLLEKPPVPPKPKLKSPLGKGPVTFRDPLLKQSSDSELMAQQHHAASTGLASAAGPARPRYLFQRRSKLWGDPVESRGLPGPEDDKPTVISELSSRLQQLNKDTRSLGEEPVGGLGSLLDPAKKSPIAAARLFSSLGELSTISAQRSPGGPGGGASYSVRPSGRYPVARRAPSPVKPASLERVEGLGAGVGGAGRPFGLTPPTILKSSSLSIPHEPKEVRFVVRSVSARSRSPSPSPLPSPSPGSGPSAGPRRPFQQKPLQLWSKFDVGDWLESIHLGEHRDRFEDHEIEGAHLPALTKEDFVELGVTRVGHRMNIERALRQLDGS

B1: Homer1-R3E (natural protein)
chain: MGEQPIFSTRAHVFQIDPNTKKNWVPTSKHAVTVSYFYDSTENVYEIISLDGSKAIINSTITPNMTFTKTSQKFGQWADSEANTVYGLGFSSEHHLSKFAEKFQEFKEAARLAKEKSQEKMELTSTPSQESAGGDLQSPLTPESINGTDDERTPDVTQNSEPRAEPAQNALPFSHSAGDRTQGLSHASSAISKHWEAELATLKGNNAKLTAALLESTANVKQWKQQLAAYQEEAERLHKRVTELECVSSQANAVHSHKTELSQTVQELEETLKVKEEEIERLKQEIDNARELQEQRDSLTQKLQEVEIRNKDLEGQLSELEQRLEKSQSEQDAFRSNLKTLLEILDGKIFELTELRDNLAKLLECS
With B1, the Kd amounted to 2.4 µM.

B2: Homer1-WT (full-length Homer1) (natural protein)
chain: B1 chain with E42R, E46R, E81R
B2 yielded a Kd of 1 µM.
